“Also recorded” adds a separate entry of the source.
B1: Mdh2-MGA3: NAD-dependent methanol dehydrogenase encoded by chromosomal gene mdh2 of B. methanolicus MGA3, SEQ ID NO. 2 (protein)
chain: MTNTQSAFFMPSVNLFGAGSVNEVGTRLADLGVKKALLVTDAGLHGLGLSEKISSIIRAAGVEVSIFPKAEPNPTDKNVAEGLEAYNAENCDSIVTLGGGSSHDAGKAIALVAANGGKIHDYEGVDVSKEPMVPLIAINTTAGTGSELTKFTIITDTERKVKMAIVDKHVTPTLSINDPELMVGMPPSLTAATGLDALTHAIEAYVSTGATPITDALAIQAIKIISKYLPRAVANGKDIEAREQMAFAQSLAGMAFNNAGLGYVHAIAHQLGGFYNFPHGVCNAVLLPYVCRFNLISKVERYAEIAAFLGENVDGLSTYDAAEKAIKAIERMAKDLNIPKGFKELGAKEEDIETLAKNAMKDACALTNPRKPKLEEVIQIIKNAM
modifications: Bacillus methanolicus MGA3
B2: Mdh3-MGA3: NAD-dependent methanol dehydrogenase encoded by chromosomal gene mdh3 of B. methanolicus MGA3, SEQ ID NO. 4 (protein)
chain: MKNTQSAFYMPSVNLFGAGSVNEVGTRLAGLGVKKALLVTDAGLHSLGLSEKIAGIIREAGVEVAIFPKAEPNPTDKNVAEGLEAYNAENCDSIVTLGGGSSHDAGKAIALVAANGGTIHDYEGVDVSKKPMVPLIAINTTAGTGSELTKFTIITDTERKVKMAIVDKHVTPTLSINDPELMVGMPPSLTAATGLDALTHAIEAYVSTGATPITDALAIQAIKIISKYLPRAVANGKDIEAREQMAFAQSLAGMAFNNAGLGYVHAIAHQLGGFYNFPHGVCNAILLPHVCRFNLISKVERYAEIAAFLGENVDGLSTYEAAEKAIKAIERMARDLNIPKGFKELGAKEEDIETLAKNAMNDACALTNPRKPKLEEVIQIIKNAM
modifications: Bacillus methanolicus MGA3
B3: Mdh-MGA3: previously reported plasmid pBM19-encoded NAD-dependent methanol dehydrogenase of B. methanolicus MGA3, SEQ ID NO. 8 (protein)
chain: MTTNFFIPPASVIGRGAVKEVGTRLKQIGAKKALIVTDAFLHSTGLSEEVAKNIREAGVDVAIFPKAQPDPADTQVHEGVDVFKQENCDSLVSIGGGSSHDTAKAIGLVAANGGRINDYQGVNSVEKPVVPVVAITTTAGTGSETTSLAVITDSARKVKMPVIDEKITPTVAIVDPELMVKKPAGLTIATGMDALSHAIEAYVAKGATPVTDAFAIQAMKLINEYLPKAVANGEDIEAREKMAYAQYMAGVAFNNGGLGLVHSISHQVGGVYKLQHGICNSVNMPHVCAFNLIAKTERFAHIAELLGENVAGLSTAAAAERAIVALERINKSFGIPSGYAEMGVKEEDIELLAKNAYEDVCTQSNPRVPTVQDIAQIIKNAM
modifications: Bacillus methanolicus MGA3

How the values were obtained:
[1] = In vitro Mdh activity in crude cell extracts of recombinant E. coli; format: biochemical; conditions: for In vitro activity: expressed in E. coli, crude cell extract; for ranking of Mdh activity on expression in E. coli: in vitro and in vivo
Text: The genes coding for Mdh and the Mdh activator protein Act were amplified from pET21a-plasmids harboring genes from B. methanolicus strains MGA3 (mdh-MGA3, mdh2-MGA3, mdh3-MGA3 and act-MGA3) and PB1 (mdh-PB1, mdh1-PB1 and mdh2-PB1). The genes were then cloned either into the pSEVA424 plasmid (mdh genes) or in the pSEVA131 plasmid (act gene). For cloning of mdh-MGA3, mdh-PB1, mdh1-PB1 and act-MGA3, EcoRI and HindIII restrictions sites were used, while mdh2-MGA3, mdh2-PB1 and mdh3-MGA3 were cloned by using EcoRI and PstI restriction sites. The resulting expression vectors were transformed into electrocompetent wt E. coli K-12 (BW25113) and into E. coli K-12 (BW25113) with a deleted frmA gene.
Expression Experiments For expression experiments, the cells were cultivated in either Luria-Bertani (LB) medium for in vitro assays or in M9 medium for in vivo assays both containing 20 μg/ml streptomycin for pSEVA424. When Act was co-expressed the medium was supplemented with 100 μg/ml ampicillin. Expression was induced when cells reached OD 0.5 (for in vitro tests) or OD 1 (for in vivo tests) by adding 0.1 mM IPTG (final concentration) for 6 hours. Cells were then harvested by centrifugation. For in vitro assays, crude cell extract was prepared by lysing the cells in a French press following ultracentrifugation. Alternatively, cells were resuspended in M9-medium without glucose for in vivo activity measurements. Enzyme Assays
In vitro measurements of Mdh activity: For determination of Mdh activity in crude cell extracts, the Mdh dependent formation of NADH was monitored at 340 nm. The assays were performed either at 37° C. or 45° C. in prewarmed buffer solutions. The Mdh assay contained 10-20 μg enzyme, 50 mM K2HPO4-buffer, pH7.4, 2.5 mM MgCl and 0.5 mM of NAD^+ (final concentrations). After 5 min of preincubation, the reaction was started with 1 M of methanol (final concentration).

[2] = Heat stability: pre-incubation of purified MDHs at 45° C. or 60° C. prior to the enzyme assay; format: biochemical; conditions: preincubation at 60° C.; compared to the remaining MDHs
Description: FIG. 5. (A) Temperature stability of MGA3 Mdh, Mdh2 and Mdh3 was tested in vitro. Enzymes were incubated at 45° C. or at 60° C. prior to the enzyme assay. (B) Temperature stability of PB1 Mdh, Mdh1 and Mdh2 was tested in vitro. Enzymes were incubated at 45° C. or at 60° C. prior to the enzyme assay.
The heat stability of the six MDHs was tested by pre-incubation of the proteins at 45° C. and 60° C. and samples were taken at different time points for enzyme assays. As expected, all enzymes retained essentially all catalytic activity upon preincubations at 45° C. (FIG. 5). […] A selection of the experiments was repeated in the presence of equal amounts of purified Act, and this had no effect on temperature stability for any of the MDHs (data not shown).

13C-methanol = 13C-methanol labeling of genetically engineered B. subtilis; format: cell-based; conditions: B. subtilis 168 expressing Act, Mdh3, HxlA
Description: For the labeling experiments we used the B. subtilis strain that expresses Act, Mdh3, HxlA and HxlB and the strain that expresses Act, Mdh3, HxlA, HxlB, GlpX, Fba, Tkt, Pfk and Rpe. As a negative control the B. subtilis strain with the empty pHCMC04 plasmid was used. All B. subtilis strains were grown on M9 medium containing (per liter) 3.48 g Na2HPO4.12H20, 0.60 g of KH2PO4, 0.51 g of NaCl, 2.04 g of NH4Cl, 0.10 g of MgSO4, 4.38 mg of CaCl2, 15 mg of Na2EDTA.2H2O, 4.5 mg of ZnSO4.7H2O, 0.3 mg of CoCl2.6 H2O, 1 mg of MnCl2.4H2O, 1 mg of H3BO3, 0.4 mg of Na2MoO4.2H2O, 3 mg of FeSO4.7H2O and 0.3 mg of CuSO4.5H2O, 10 g of xylose (i.e. inducer) and 5 mg of chloramphenicol. All the cultivations were performed at 37° C. Cells strains were plated from a glycerol stock on a LB agar plate (10 g/l of tryptone, 5 g/l of yeast extract, 10 g/l of NaCl, and 16 g/l agar) containing 5 μg/ml of chloramphenicol and grown afterwards on a LB+chloramphenicol liquid medium for approximately 5 hours. The liquid pre-cultures containing M9 medium were inoculated from the LB cultures at a final OD600 between 1.4 and 1.8. […] The labeling patterns of intracellular metabolites were measured using a Dionex ICS 2000 system (Dionex, Sunnyvale, USA) coupled to a triple quadrupole QTrap 4000 mass spectrometer (Applied Biosystems, Foster City, USA).

| Molecule | In vitro activity ([1]; 37° C., +Act) [mU/mg] | In vitro activity ([1]; 37° C., −Act) [mU/mg] | In vitro activity ([1]; 45° C., +Act) [mU/mg] | In vitro activity ([1]; 45° C., −Act) [mU/mg] | ranking of Mdh activity on expression in E. coli [1] | ranking of Mdh activity on expression in E. coli ([1]; listed as MGA3-Mdh2) | temperature stability in vitro (in words) [2] | 13C labeling of metabolites (mass isotopomer fraction M1) (13C-methanol; HxlB plus overexpressed PPP genes) | 13C labeling of metabolites (mass isotopomer fraction M1) (13C-methanol; HxlB, no PPP genes overexpressed) |
| --- | --- | --- | --- | --- | --- | --- | --- | --- | --- |
| B1 | 672 | 59 | 1910 | 310 | gave the best results | overall highest activities both in vitro and in vivo |  |  |  |
| B2 | 327 | 21 | 867 | 113 |  |  | Higher Temperature Stabilities; also recorded: improved thermostability | significant labeling incorporation was detected | no labeling was found |
| B3 | 464 | 48 | 1260 | 251 |  |  | only moderate negative effects |  |  |

— patent US9322000B2, “Methanol dehydrogenase enzymes from Bacillus” (Sinvent AS, priority 2012, dated 2016)
